Assay results published in patent publication US20250270529.

System: T1, Cas13f v3 (v2+D160A&D642A) (synthetic construct)
T1 sequence: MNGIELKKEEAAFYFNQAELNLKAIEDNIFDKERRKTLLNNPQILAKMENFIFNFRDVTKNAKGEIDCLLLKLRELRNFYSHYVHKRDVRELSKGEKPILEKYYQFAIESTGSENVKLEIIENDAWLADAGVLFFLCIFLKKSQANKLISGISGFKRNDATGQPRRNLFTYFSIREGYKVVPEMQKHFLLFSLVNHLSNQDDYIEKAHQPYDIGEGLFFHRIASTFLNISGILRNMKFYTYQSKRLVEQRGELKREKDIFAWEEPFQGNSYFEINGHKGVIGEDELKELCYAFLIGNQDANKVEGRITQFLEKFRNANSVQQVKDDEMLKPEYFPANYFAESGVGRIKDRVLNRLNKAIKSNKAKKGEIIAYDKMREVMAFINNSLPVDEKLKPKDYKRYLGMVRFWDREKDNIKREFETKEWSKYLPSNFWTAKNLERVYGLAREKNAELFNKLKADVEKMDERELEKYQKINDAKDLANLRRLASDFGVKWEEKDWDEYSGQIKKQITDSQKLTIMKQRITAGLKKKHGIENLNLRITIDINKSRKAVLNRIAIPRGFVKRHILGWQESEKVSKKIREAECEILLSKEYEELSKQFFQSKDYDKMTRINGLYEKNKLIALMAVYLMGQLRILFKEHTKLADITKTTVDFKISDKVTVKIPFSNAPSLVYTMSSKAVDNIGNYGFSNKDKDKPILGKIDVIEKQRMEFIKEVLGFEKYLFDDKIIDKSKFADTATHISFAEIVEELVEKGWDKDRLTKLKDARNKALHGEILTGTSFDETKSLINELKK
Assay: cell_activity
Conditions: HEK293T; non-targeting spacer control

non-targeting gRNA (DR-spacer-DR) ; mCherry reporter mRNA
activity (RFP MFI (normalization reference)): 1
